Paper PMC8352866

What was measured:
[1] = biological target: Synechocystis sp. PCC 6803 SbtA (Synechocystis sp. PCC 6803); assay: cryo-EM structure; SbtA-SbtB complex purified in the presence of AMP; 3.15 Å resolution
[2] = biological target: Synechocystis sp. PCC 6803 SbtA (Synechocystis sp. PCC 6803); assay: cryo-EM structure; free SbtA, purified; 3.50 Å resolution
[3] = biological target: PII-like signaling protein SbtB; assay: cryo-EM structure; SbtA-SbtB complex purified in the presence of AMP; 3.15 Å resolution

| Substance | stoichiometry N [1] | stoichiometry N [2] | stoichiometry N [3] |
| --- | --- | --- | --- |
| Synechocystis sp. PCC 6803 SbtA (natural protein) | 3 | 3 | – |
| PII-like signaling protein SbtB (natural protein) | – | – | 3 |
